B1: r16_88_TrROS_Hall (parent)
chain: EVIELKIKFKTPEQREKLKEIAKKLNAEVVEEKDGEVIIRFKTPEQAERALKEAEKLGAEVEL
B2: HEEH_KT_rd6_0790 (parent)
chain: SEEEEEEWRRAKERGEEIIILGILWKPNDEEAERRIKEALRRV

Variants of: B1
Assay: folding stability dG (cDNA display proteolysis); higher = more stable
Details: PBS, room temperature

| Variant | folding stability dG [kcal/mol] |
| --- | --- |
| K10Q | 4.34 |
| K10S | 4.16 |
| K10E | 4 |
| K10I | 4.09 |
| K10V | 4.2 |
| K10N | 4.22 |
| K10H | 4.28 |
| K10P | 4.2 |
| K10R | 4.47 |
| K10C | 4.2 |
| K10Y | 4.5 |
| K10A | 4.22 |
| K10L | 4.29 |
| K10D | 4.11 |
| K10W | 4.3 |
| K10M | 4.19 |
| K10F | 4.18 |
| K10G | 4.21 |
| K10T | 4.38 |
| V2P | 4.16 |
| V2G | 4.48 |
| V2N | 4.22 |
| V2D | 4.1 |
| V2R | 4.21 |
| V2H | 4.34 |

| Variant | folding stability dG [kcal/mol] |
| --- | --- |
| V2L | 4.27 |
| V2F | 4.68 |
| V2Q | 4.45 |
| V2W | 4.56 |
| V2C | 4.51 |
| V2M | 4.45 |
| V2A | 4.3 |
| V2T | 4.19 |
| V2Y | 4.53 |
| V2S | 4.13 |
| V2I | 4.15 |
| V2K | 4.33 |
| V2E | 4.13 |
| L5P | 2.55 |
| L5C | 4.29 |
| L5R | 4.4 |
| L5D | 2 |
| L5H | 4.34 |
| L5N | 3.85 |
| L5Q | 4.28 |
| L5A | 4.37 |
| L5V | 4.29 |
| L5I | 4.26 |
| L5T | 4.04 |
| L5M | 4.49 |

| Variant | folding stability dG [kcal/mol] |
| --- | --- |
| L5S | 3.94 |
| L5F | 4.91 |
| L5K | 4.38 |
| L5G | 4.02 |
| L5E | 3.72 |
| I3H | 4.7 |
| I3Q | 4.76 |
| I3M | 4.63 |
| I3D | 4.52 |
| I3V | 4.58 |
| I3L | 4.63 |
| I3W | 4.71 |
| I3G | 4.47 |
| I3C | 4.46 |
| I3E | 4.3 |
| I3F | 4.97 |
| I3K | 4.76 |
| I3S | 4.71 |
| I3A | 4.54 |
| I3N | 4.76 |
| I3Y | 4.7 |
| I3P | 4.46 |
| I3T | 4.67 |
| I3R | 4.61 |
| E1N | 4.33 |

| Variant | folding stability dG [kcal/mol] |
| --- | --- |
| E1C | 4.27 |
| E1L | 4.31 |
| E1D | 4.2 |
| E1T | 4.26 |
| E1Y | 4.34 |
| E1Q | 4.25 |
| E1A | 4.45 |
| E1V | 4.06 |
| E1H | 4.08 |
| E1K | 4 |
| E1R | 3.94 |
| E1I | 4.29 |
| E1P | 4.22 |
| E1W | 4.18 |
| E1F | 4.33 |
| E1G | 4.57 |
| E1S | 4.32 |
| E1M | 4.3 |
| T11K | 4.23 |
| T11I | 4.59 |
| T11N | 4.26 |
| T11E | 4.14 |
| T11P | 3.48 |
| T11R | 4.37 |
| T11M | 4.62 |

| Variant | folding stability dG [kcal/mol] |
| --- | --- |
| T11S | 4.44 |
| T11Q | 4.33 |
| T11D | 4.03 |
| T11G | 4.26 |
| T11L | 4.75 |
| T11F | 4.54 |
| T11W | 4.6 |
| T11V | 4.48 |
| T11H | 4.42 |
| T11C | 4.58 |
| T11A | 4.39 |
| T11Y | 4.02 |
| P12T | 4.57 |
| P12E | 4.46 |
| P12D | 4.2 |
| P12H | 4.59 |
| P12S | 4.44 |
| P12M | 4.53 |
| P12Q | 4.3 |
| P12C | 4.54 |
| P12N | 4.23 |
| P12I | 4.47 |
| P12F | 4.85 |
| P12K | 4.4 |
| P12G | 4.38 |

| Variant | folding stability dG [kcal/mol] |
| --- | --- |
| P12A | 4.39 |
| P12L | 4.31 |
| P12W | 4.88 |
| P12V | 4.49 |
| P12R | 4.73 |
| E4Q | 4.79 |
| E4K | 4.51 |
| E4G | 4.3 |
| E4A | 4.69 |
| E4W | 4.66 |
| E4M | 4.72 |
| E4C | 4.76 |
| E4H | 4.42 |
| E4I | 4.54 |
| E4R | 4.58 |
| E4V | 4.58 |
| E4F | 4.76 |
| E4N | 4.35 |
| E4D | 4.4 |
| E4P | 4.4 |
| E4L | 4.56 |
| E4S | 4.54 |
| E4Y | 4.64 |
| K8T | 4.33 |
| K8P | 4.21 |

| Variant | folding stability dG [kcal/mol] |
| --- | --- |
| K8Y | 4.61 |
| K8V | 4.34 |
| K8N | 4.08 |
| K8L | 4.31 |
| K8R | 4.62 |
| K8Q | 4.14 |
| K8F | 4.53 |
| K8W | 4.83 |
| K8H | 4.25 |
| K8S | 4.1 |
| K8I | 4.12 |
| K8C | 4.15 |
| K8G | 4.05 |
| K8E | 3.87 |
| K8A | 4.09 |
| K8D | 3.72 |
| K8M | 4.48 |
| F9L | 4 |
| F9T | 3.73 |
| F9R | 2.76 |
| F9P | 4.02 |
| F9H | 4.19 |
| F9A | 4.06 |
| F9D | 3.45 |
| F9W | 4.61 |

| Variant | folding stability dG [kcal/mol] |
| --- | --- |
| F9Y | 4.33 |
| F9V | 4.27 |
| F9E | 2.48 |
| F9S | 3.85 |
| F9I | 3.96 |
| F9K | 2.75 |
| F9G | 3.9 |
| F9Q | 3.28 |
| F9M | 3.98 |
| F9C | 4.19 |
| F9N | 3.54 |
| K6M | 4.43 |
| K6I | 4.47 |
| K6E | 3.75 |
| K6Q | 4.17 |
| K6L | 4.32 |
| K6R | 4.73 |
| K6P | 3.96 |
| K6F | 4.76 |
| K6H | 4.48 |
| K6G | 4.02 |
| K6W | 4.94 |
| K6A | 4.22 |
| K6T | 4.34 |
| K6S | 4.26 |

| Variant | folding stability dG [kcal/mol] |
| --- | --- |
| K6N | 4.39 |
| K6Y | 4.77 |
| K6V | 4.37 |
| K6D | 3.67 |
| K6C | 4.34 |
| I7A | 4.69 |
| I7Y | 4.82 |
| I7N | 2.98 |
| I7H | 3.18 |
| I7V | 4.44 |
| I7K | 2.77 |
| I7P | 2.3 |
| I7D | 1.65 |
| I7S | 3.87 |
| I7M | 4.39 |
| I7Q | 3.21 |
| I7G | 4.36 |
| I7C | 4.31 |
| I7R | 3.04 |
| I7L | 4.64 |
| I7T | 4.09 |
| I7E | 2.11 |
| I7F | 4.53 |
| I7W | 4.97 |

Variants of: B2
Assay: as above
Details: PBS, room temperature

| Variant | folding stability dG [kcal/mol] |
| --- | --- |
| E4Q | 2.2 |
| E4L | 3.4 |
| E17A | 2.12 |
| S1M | 2.5 |
| S1N | 2.18 |
| E2L | 2.5 |
| E2T | 2.49 |
| E2D | 2.16 |
| E2G | 2.34 |
| E2C | 2.63 |
| E38S | 1.67 |
| I23R | 0.853 |
| D29A | 1.25 |
| D29I | 0.872 |
| D29S | 1.42 |
| R35V | 1.48 |
| R35P | 0.078 |
| E6I | 1.77 |
| E6W | 2.09 |
| A32H | 0.931 |
| A32E | 1.25 |
| A32T | 1.55 |

| Variant | folding stability dG [kcal/mol] |
| --- | --- |
| W8H | 0.824 |
| W8Q | 0.919 |
| E13A | 2.22 |
| K26Y | 1.51 |
| E7W | 2.86 |
| E7N | 2.54 |
| E7M | 2.62 |
| I19M | 2.01 |
| I19T | 2.14 |
| I19V | 2.17 |
| I19E | 1.85 |
| L24S | 1.67 |
| L24Q | 1.66 |
| V43Y | 2.38 |
| V43N | 1.86 |
| V43D | 1.69 |
| V43Q | 2.26 |
| L21G | 1.27 |
| L21E | 1.28 |
| L21S | 1.24 |
| N28E | 1.84 |
| N28I | 0.872 |

| Variant | folding stability dG [kcal/mol] |
| --- | --- |
| N28T | 1.38 |
| E33P | 0.529 |
| E33R | 1.29 |
| E33H | 1.3 |
| G15D | 1.25 |
| G15I | 1.34 |
| G15R | 1.66 |
| R34S | 2.02 |
| R34C | 2.5 |
| R34L | 2.06 |
| I36L | 1.49 |
| R41S | 1.94 |
| E31Q | 1.72 |
| E31A | 1.79 |
| E31Y | 1.56 |
| E31H | 1.64 |
| E31M | 1.54 |
| E30W | 1.94 |
| E30H | 2.06 |
| E16A | 1.7 |
| E16Q | 2.05 |
| E16I | 2.21 |

| Variant | folding stability dG [kcal/mol] |
| --- | --- |
| A11T | 1.26 |
| A11V | 1.75 |
| G22S | 1.19 |
| I18V | 2.15 |
| I18F | 2.1 |
| I18K | 1.68 |
| I18Y | 1.86 |
| E3V | 2.33 |
| E3H | 2.33 |
| E3D | 2.35 |
| R9L | 2.11 |
| R9T | 1.74 |
| R14G | 1.42 |
| R14Y | 1.68 |
| R14L | 2.05 |
| R14M | 1.88 |
| A39T | 1.31 |
| A39P | 0.322 |
| A39R | 1.88 |
| I20Y | 1.5 |
| I20S | 0.816 |
| K37V | 2.44 |

| Variant | folding stability dG [kcal/mol] |
| --- | --- |
| K37R | 2.37 |
| K37L | 2.75 |
| L40H | 1.26 |
| L40C | 1.55 |
| L40R | 1.2 |
| R10D | 1.2 |
| R10H | 1.76 |
| R10E | 1.33 |
| R42E | 1.75 |
| R42Y | 1.77 |
| R42G | 1.88 |
| R42T | 1.83 |
| R42V | 1.95 |
| R42D | 1.56 |
| E5G | 1.41 |
| K12V | 1.89 |
| K12P | 1.02 |
| K12I | 1.97 |
| K12M | 2.37 |
| K12Q | 1.9 |
| W25Y | 1.25 |
| W25G | 0.809 |

— the MegaScale stability set (Tsuboyama et al. 2023)
